Two molecules from US20260097129A1, “ANTIBODY-DRUG CONJUGATE COMPRISING DRUG AND ANTIBODY SPECIFICALLY BINDING TO GRP94 OR ANTIGEN-BINDING FRAGMENT THEREOF” (KOOKMIN UNIVERSITY INDUSTRY ACADEMY COOPERATION FOUNDATION, priority 2022, published 2026) can be followed below.

The test system of one test is HCT116 cells. Description: Antibody internalization, FabFluor-pH Red labeling, Incucyte live cell imaging. It counts as cell-based, human. Here is the method: Antibody internalization in HCT116 cells was measured using the FabFluor-pH Red Antibody Labeling Reagent (Sartorius, Gottingen, Germany) according to the manufacturer's instructions. […] HCT116 cells were seeded at a density of 10,000 cells/well in a 96-well culture plate and allowed to adhere overnight. The control IgG, K101.1, or trastuzumab (MedChemExpress, Princeton, NJ, USA) were individually labeled with the human FabFluor-pH Red antibody labeling reagent at a 1:3 molar ratio in PBS and incubated for 15 minutes. The labeled antibodies were added to the cell culture medium at a final concentration of 2 μg/ml. The plate was transferred to the Incucyte SX1 live cell analysis system (Sartorius) and images were captured with a 10× objective lens for 12 hours. The fluorescence intensity was individually measured for each image.
The internalization of antibodies in HCT116 cells was measured using the FabFluor-pH Red antibody labeling reagent (Sartorius, Göttingen, Germany) according to the manufacturer's instructions. […] However, after internalization of the reagent-labeled antibody, the fluorescence intensity increases under the acidic conditions inside endosomes and lysosomes. HCT116 cells were seeded at a density of 10,000 cells per well in a 96-well culture plate and allowed to attach overnight. […] Fluorescence intensity was then measured.

For a further test, the system named is HT29. Description: Cell proliferation assay, real-time live cell imaging (Incucyte). It counts as cell-based, human. The following applies: 133 nM K101.1, 33 nM and 133 nM K101.1-Sec-DM1, 62 hours, FIG. 9. Here is the method: (§1) To investigate the effect of K101.1-Sec-DM1 on CRC cell growth in vitro, 1×10^4 HT29, LoVo, or 5×10^3 HCT116 CRC cells were seeded in the wells of a 96-well plate and incubated at 37° C. for 16 hours. The cells were then treated with either 133 nM of K101.1 or 33 nM and 133 nM of K101.1-Sec-DM1, with or without the presence of the drug. Cell growth was measured for 62 hours using the Incucyte SX1 live cell analysis instrument (Sartorius).

The next test relates to HCT116. The test is described as above. The test is classed as cell-based, human. The settings on record: 133 nM K101.1, 33 nM and 133 nM K101.1-Sec-DM1, 62 hours, FIG. 9. Here is the method: as §1
The next test deals with LoVo. Described as above. It counts as cell-based, human. The following applies: 133 nM K101.1, 33 nM and 133 nM K101.1-Sec-DM1, 62 hours, FIG. 9. Here is the method:
as §1

A further test has as its target rmGRP94 (Mus musculus, UniProt P08113). Description: ELISA binding to immobilized rmGRP94. The following applies: immobilized rmGRP94, FIG. 8. In general terms: In an ELISA, binding on a coated surface is turned into a signal by an enzyme label.
Another test addresses rhGRP94 (Homo sapiens, UniProt P14625). Description: ELISA binding to immobilized rhGRP94. The following applies: immobilized rhGRP94, FIG. 8. Here is the method: A 96-well microplate was coated with 0.1 μg of rhGRP94 and incubated at 4° C. for 16 hours. After blocking the plate with 3% (w/v) BSA in PBS at 37° C. for 2 hours, the plate was incubated with 20 µg/mL of K101.1-Sec (SelT) at 37° C. for 2 hours. After washing the plate three times with PBS-T, it was incubated with HRP-conjugated anti-human Fc secondary antibody (1:5,000; Invitrogen) or HRP-conjugated anti-HA antibody (1:3,000; Bethyl Laboratories, Montgomery, TX, USA) at 37° C. for 1 hour. The color reaction was initiated with 100 μL of TMB substrate solution and terminated with 2N H2SO4 solution. Optical density was measured at 450 nm using a microplate reader.
A 96-well microplate was coated with 0.1 μg of rhGRP94 and incubated at 4° C. for 16 hours. After blocking with 3% (w/v) BSA in PBS at 37° C. for 2 hours, the plate was incubated with 20 μg/mL of K101.1-Sec (SelT) at 37° C. for 2 hours. After washing three times with PBS-T, the plate was incubated with HRP-conjugated anti-human Fc secondary antibody (1:5,000; Invitrogen) at 37° C. for 1 hour. The color reaction was initiated with 100 μL of TMB substrate solution and terminated with 2N H2SO4 solution. Optical density was measured at 450 nm using a microplate reader.

rhGRP94, sequence (P14625 22-803): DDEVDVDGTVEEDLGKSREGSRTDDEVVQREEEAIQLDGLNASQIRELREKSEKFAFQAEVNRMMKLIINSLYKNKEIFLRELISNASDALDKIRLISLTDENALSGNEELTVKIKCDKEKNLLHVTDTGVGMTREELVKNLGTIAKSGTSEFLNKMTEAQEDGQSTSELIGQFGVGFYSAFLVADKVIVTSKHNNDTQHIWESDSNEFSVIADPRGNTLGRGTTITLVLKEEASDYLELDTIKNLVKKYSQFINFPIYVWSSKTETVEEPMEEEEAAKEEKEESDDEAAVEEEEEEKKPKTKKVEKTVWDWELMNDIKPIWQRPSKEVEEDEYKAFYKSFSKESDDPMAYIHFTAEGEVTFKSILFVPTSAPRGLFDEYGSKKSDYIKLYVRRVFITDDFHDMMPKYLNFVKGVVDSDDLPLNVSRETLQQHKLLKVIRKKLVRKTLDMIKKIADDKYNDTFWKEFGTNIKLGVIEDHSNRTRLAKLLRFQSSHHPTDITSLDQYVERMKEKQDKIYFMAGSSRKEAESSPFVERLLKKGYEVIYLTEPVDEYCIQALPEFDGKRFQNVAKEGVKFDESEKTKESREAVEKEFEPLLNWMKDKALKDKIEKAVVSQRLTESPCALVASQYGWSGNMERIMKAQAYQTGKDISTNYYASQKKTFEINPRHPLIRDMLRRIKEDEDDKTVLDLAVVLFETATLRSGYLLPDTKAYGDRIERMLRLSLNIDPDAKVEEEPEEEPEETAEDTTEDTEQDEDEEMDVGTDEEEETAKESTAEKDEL
rmGRP94, sequence (P08113 22-802): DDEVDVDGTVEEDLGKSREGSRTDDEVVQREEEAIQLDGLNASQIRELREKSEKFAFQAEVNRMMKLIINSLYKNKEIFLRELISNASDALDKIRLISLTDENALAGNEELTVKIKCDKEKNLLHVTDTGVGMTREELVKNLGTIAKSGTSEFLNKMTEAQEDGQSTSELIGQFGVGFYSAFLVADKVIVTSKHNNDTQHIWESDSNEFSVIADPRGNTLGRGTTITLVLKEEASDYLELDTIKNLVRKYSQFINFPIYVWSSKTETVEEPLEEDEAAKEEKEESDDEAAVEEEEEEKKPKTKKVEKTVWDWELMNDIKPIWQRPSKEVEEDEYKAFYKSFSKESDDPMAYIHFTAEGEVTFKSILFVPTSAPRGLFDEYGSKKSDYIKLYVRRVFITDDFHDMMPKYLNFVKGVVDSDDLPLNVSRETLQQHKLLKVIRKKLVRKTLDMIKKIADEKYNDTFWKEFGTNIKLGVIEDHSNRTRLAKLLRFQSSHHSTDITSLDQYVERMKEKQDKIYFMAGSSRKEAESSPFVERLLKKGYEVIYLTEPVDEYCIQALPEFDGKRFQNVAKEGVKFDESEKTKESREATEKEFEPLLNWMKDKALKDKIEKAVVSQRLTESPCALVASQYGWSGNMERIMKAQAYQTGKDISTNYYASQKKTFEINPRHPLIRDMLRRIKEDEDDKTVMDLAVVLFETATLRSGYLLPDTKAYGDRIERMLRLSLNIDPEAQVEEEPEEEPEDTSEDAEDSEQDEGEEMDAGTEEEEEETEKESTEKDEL

B1: K101.1: GRP94-specific IgG antibody, CDRs SEQ ID NO: 1-6, VH SEQ ID NO: 7, VL SEQ ID NO: 8 (antibody, V domains shown)
VH: EVQLLESGGGLVQPGGSLRLSCAASGFTFSNYSMSWVRQAPGKGLEWVSGIYYGSGNKYYADSVKGRFTISRDNSKNTLYLQMNSLRAEDTAVYYCAKNLASFDYWGQGTLVTVSS
VL: QSVLTQPPSASGTPGQRVTISCSGSSSNIGSNSVNWYQQLPGTAPKLLIYSNSHRPSGVPDRFSGSKSGTSASLAISGLRSEDEADYYCGTWDSSLSGYVFGGGTKLTVL
Turning to B1, in the test on HCT116 cells (labeled antibody 2 μg/mL, imaged for 10 hours, Example 2, FIG. 10), the “antibody internalization (FabFluor fluorescence intensity)” value is reported as “exhibited stronger internalization than trastuzumab”. Besides, the “antibody internalization (FabFluor red fluorescence intensity)” value in the test with HCT116 cells (labeled antibody 2 μg/ml, imaged for 12 hours, Example 1, FIG. 1) is listed as “promoted internalization more efficiently than trastuzumab”. Further, the “effect on CRC cell growth” value in the test on HT29, with HCT116 and in the test with LoVo was “little to no effect” in each case.

B2: K101.1-Sec-DM1 (conjugate)
heavy: EVQLLESGGGLVQPGGSLRLSCAASGFTFSNYSMSWVRQAPGKGLEWVSGIYYGSGNKYYADSVKGRFTISRDNSKNTLYLQMNSLRAEDTAVYYCAKNLASFDYWGQGTLVTVSS
light: QSVLTQPPSASGTPGQRVTISCSGSSSNIGSNSVNWYQQLPGTAPKLLIYSNSHRPSGVPDRFSGSKSGTSASLAISGLRSEDEADYYCGTWDSSLSGYVFGGGTKLTVL
modifications: non-natural residues; left off: small tags and cut ends; large carriers
As for B2, the “effect on CRC cell growth” value in the test on HT29 is “significantly and more strongly inhibited the growth”; in the test with HCT116, “significantly and more strongly inhibited the growth”; in the test on LoVo it was “significantly and more strongly inhibited the growth”. Moreover, the “antigen binding by ELISA compared with parent antibody K101.1” value in the test with rmGRP94 and with rhGRP94 was “no significant difference in antigen binding” each time.
